According to PMC9063846, “The structure of Phocaeicola vulgatus sialic acid acetylesterase” (Acta Crystallographica. Section D, Structural Biology, 2022):

Substrate: CC(=O)Oc1ccc([N+](=O)[O-])cc1
Assay: purified protein
Assay type: biochemical, Phocaeicola vulgatus
Conditions: 10 nM enzyme, 100 mM phosphate-citrate buffer pH 7.0, 25 °C, 1% DMSO

B1: PvSAE (Phocaeicola vulgatus ATCC 8482) (protein)
chain: ERKYSTFYEQRATLFEELPVTSKDIIFLGNSITNGCEWAELFQNKNVKNRGISGDICMGVYDRLDPIVKGKPAKIFLLIGINDVSRGTSADKIISEISMIVRKIKQESPKTKLYLQSVLPVNDCYGMFNGHTSRWQVVKQINDLLEPLAVKEGVAYIDLYSHFVEKETGKMNPVYTNDGLHLLGKGYLLWRDIVKPYVDQK
notes: signal peptide removed (predicted cleavage 19/20); E. coli BL21(DE3) Gold
Km: 80 ± 6 µM | kcat: 75 ± 1 s⁻¹ | kcat/Km: 930000 ± 70000 M⁻¹ s⁻¹
